Reference: patent US8916159B2, “Selenocysteine mediated hybrid antibody molecules” (The United States of America, as represented by the …, priority 2007, dated 2014)
Read-outs that look alike come from different tables or passages of the source. Non-standard residues stand in square brackets, D forms with d. Groups on a side chain read outwards from the residue. No end group written: not given here. folate‑alkyne = folate derivative bearing an alkyne group; Sec = N[C@@H](C[SeH])C(=O)O; biotin‑azide = biotin-azide

Assays:
Raji cells [1] = settings: 0.6 μM; for complement-dependent cytotoxicity with rabbit complement: 10% rabbit complement 2 hours 37° C.
Procedure: To determine whether Sec-conjugation had any effect on the cytotoxic effects of Rituximab, Raji cells were centrifuged and resuspended in 1% (v/v) FCS/PBS, and aliquots of 50 μL containing 5×10^5 cells were distributed into a V-bottom 96-well plate (Corning). After incubation with Rituximab, Rituxi-Sec-His/fluorescein, or Rituxi-Fab-Sec-His/biotin (0.6 μM) for 1 hour on ice, cells were washed twice and incubated with 10% rabbit complement of 3-4 weeks old rabbits (Pel-Freez) for 2 hours at 37° C. After the addition of 100 μg/ml propidium iodide (PI), dead cells were detected by PI accumulation using a FACScan instrument (Becton-Dickinson).

Raji cells [2] = experiment: Flow cytometry binding to Raji cells; set-up: species or system Human; settings: for fluorescence signal on Raji cells after exposure of protein to FITC maleimide derivative: FIG. 11C
Procedure: Flow cytometry assays were conducted on the resulting conjugates. Human Burkitt's lymphoma cell line Raji was purchased from ATCC. All incubations were for 1 hour on ice. […] After washing twice with 1% (v/v) FCS/PBS, the cells were incubated with a 1:25 dilution of PE-coupled streptavidin (BD Biosciences) or with FITC-coupled goat anti-human Fab polyclonal (Fab′)2 fragments (Jackson ImmunoResearch Laboratories). […] After washing twice as before, the cells were resuspended in 400 μL 1% (v/v) FCS/PBS and analyzed using a FACScan instrument (Becton-Dickinson). For the competition experiment, the cells were first incubated with the anti-CD52 monoclonal antibody CAMPATH® or Rituximab (all 0.6 μM). For detection, a 1:25 dilution of PE-coupled streptavidin (BD Biosciences) was used.

folate receptor = molecular target: T1, folate receptor (Homo sapiens, UniProt P15328); experiment: Flow cytometry binding to SKOV-3 cells expressing folate receptor; settings: SKOV-3, three click reaction conditions, FIG. 17
T1 construct: endogenous in cells; host or cells: SKOV-3
T1 sequence (P15328 25-234): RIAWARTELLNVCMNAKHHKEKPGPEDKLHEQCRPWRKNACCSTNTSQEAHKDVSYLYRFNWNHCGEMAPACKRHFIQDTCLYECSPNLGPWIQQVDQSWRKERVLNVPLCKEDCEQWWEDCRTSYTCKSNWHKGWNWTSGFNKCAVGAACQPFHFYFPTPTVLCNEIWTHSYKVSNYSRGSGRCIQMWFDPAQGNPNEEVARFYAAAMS
Procedure: The results are depicted in the flow cytometry plot of FIG. 17.
The folate was further equipped with an alkyne group using methods described in Thomas et al., Poster MEDI-409, 238th ACS National Meeting, Washington, D.C. (Aug. 16-20, 2009). Using azide-alkyne Huisgen cycloaddition (“click chemistry”) under various reaction conditions, biotin-azide was added to the resulting Fc-Sec-His/folate-alkyne. The results of three reaction conditions are also depicted in the flow cytometry plot of FIG. 17.

integrin α4 = molecular target: T2, integrin α4 (Homo sapiens, UniProt P05556+P13612); experiment: Competition with anti-integrin α4 mAb for binding to integrin α4β1-expressing lymphoma cells; settings: PEG-SU-Lys-Lys-mal linker conjugate, FIG. 14
T2 construct: endogenous in cells
From the text: Using solid-phase synthesis techniques as described in Thomas et al., Bioorg. Medicinal Chem. Letters, 18: 5785-88 (2008), the PEG-SU-Lys-Lys-mal linker was used to couple LLP2A to Fc-Sec. A biotin reporter molecule was employed as described in Example 2 to allow detection of Fc covalent adducts by avidin pull-down experiments followed by ELISA visualization. The Fc-Sec-LLP2A conjugate was then incupated with integrin α4β1-expressing cells. The cells were washed and then treated with Cy5-labeled rabbit anti-human IgG. Under these conditions, cells only fluoresced if both the Fc and LLP2A components of the hybrid construct were present.

[3] = Serum levels in mice after i.v. injection, flow cytometry using Raji cells; assay type: in vivo, C57BL/6 mice; settings: i.v. 100 μL of 3 mg/mL, bleeds 30 min to 96 h
Procedure: The mouse study was carried out by Biocon, Inc. (Rockville, Md.) in accordance with the Guide for the Care and Use of Laboratory Animals published by the National Institutes of Health. […] Sera from retro-orbital bleeds were prepared 30 min, 24 h, 48 h, 72 h, and 96 h after injection. Sera were diluted ten-fold in 1% (v/v) FCS/PBS and analyzed by flow cytometry using Raji cells and Cy5-coupled goat anti-human F(ab′)2 polyclonal antibodies (Jackson ImmunoResearch) or PE-coupled streptavidin as described in Example 10 (FIG. 16C).

Rituximab-Sec-His/fluorescein: Rituximab-Sec-His conjugated at Sec to fluorescein-5-maleimide (FITC derivative with maleimide moiety)
complement-dependent cytotoxicity with rabbit complement (Raji cells [1]; listed as Rituxi-Sec-His/fluorescein): as potent as Rituximab
complement-dependent cytotoxicity with rabbit complement (Raji cells [1]; listed as Rituximab-Sec-His/FITC): equal cytotoxicity
fluorescence signal on Raji cells after exposure of protein to FITC maleimide derivative (Raji cells [2]): clear and homogenous signal

Rituximab-stop: Rituximab protein without inserted selenocysteine
fluorescence signal on Raji cells after exposure of protein to FITC maleimide derivative (Raji cells [2]): only basal levels

Fc-Sec-His/folate-alkyne: Fc-Sec-His folate conjugate equipped with an alkyne group; biotin-azide clicked on (chain (part 1 of 2) EPKSSDKTHTCPPCP; chain (part 2 of 2) A[Sec]([folate‑alkyne-biotin‑azide])HHHHHH; not fully specified; cysteine pairing not given here; also: biotin-azide clicked on)
folate binding after biotin-azide click onto alkyne conjugate (folate receptor): retained its folate binding properties

Fc-Sec-LLP2A: LLP2A coupled to Fc-Sec using the PEG-SU-Lys-Lys-mal trifunctional linker with biotin reporter (chain (part 1 of 2) EPKSSDKTHTCPPCP; chain (part 2 of 2) Ala-X; not fully specified (some residues); cysteine pairing not given here; also: LLP2A coupled via PEG-SU-Lys-Lys-mal trifunctional linker with biotin reporter, site not given here)
binding to lymphoma cells in the presence of anti-integrin α4 mAb (integrin α4): diminished binding

Rituximab: commercially available CD20 antibody [reference compound]
serum signal over the course of the experiment [3]: only marginal weakening
complement-dependent cytotoxicity with rabbit complement (Raji cells [1]): strong cytotoxic effect
cytotoxicity of antibody alone, without rabbit serum (Raji cells [1]; no rabbit serum, FIG. 12A): neither the antibody nor rabbit serum alone mediated complement-dependent cytotoxicity
binding to Raji cells (Raji cells [2]; 0.6 μM, 1 hour on ice, FIG. 11A): equal affinities
